Results reported in the supplement of paper PMC12042874.
± gives the uncertainty stated by the source.

Test: amyloid nucleation score (Sup35N fusion, yeast selection) (log enrichment); library NNK2; higher = more nucleation; inactive = no reads after selection
How it was run: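 Using DiMSum, nucleation scores were taken as the log enrichment of output over input reads, centred on the mode score of non-aggregating sequences. The input and output reads came from Illumina sequencing of plasmid inserts, with sequences under 100 input reads excluded. The yeast were psi-negative, expressed Sup35N fused to peptides of 20 random codons, were induced with 100 μM copper sulfate for 24 hours, and were grown 7 days at 30°C on medium lacking adenine and uracil.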

Row | Substance | amyloid nucleation score
1 | FPIFKHDWLFYWCTPSIKGR | -1.06 ± 0.31
2 | LLAIVVILKSTAPGKRY | inactive
3 | WCLSLPVRDSTVCLSTVLSG | 0.294 ± 0.29
4 | VITEADRLFHWIWKESLGEE | 4.858 ± 0.035
5 | RYMRFYRLAGPAVLRFHLR | inactive
6 | VDFRFMMHPSEEWMSNHLPR | 1.14 ± 0.24
7 | PLWVEGFMCSNGMCILGRSG | 1.77 ± 0.14
8 | VNQLRHYDLGINAHGQCRRL | 0.54 ± 0.8
9 | IRNTLPAAIDVSATVTFVIL | 3.17 ± 0.12
10 | VGTAKYYFKGCLGTPRSNNL | inactive
11 | RKISMTN | -0.573 ± 0.3
12 | ANMCELVLLELVIELRGGLA | 3.28 ± 0.088
13 | QLTRTVIYCLLFSAFHFYIS | 2.39 ± 0.22
14 | SCPGLGNRIPDTVKYT | 0.969 ± 0.22
15 | LQVMEIYSLSIYYIYFLYIG | inactive
16 | YGYKMVTSYVGFL | 0.753 ± 0.81
17 | RYENPLYVCDWGFGASLFRP | 0.237 ± 0.22
18 | LLVRFVLVATRRTLSTV | -0.029 ± 1.1
19 | FNDGTQKSTLACVRNKYRVY | 0.633 ± 0.57
20 | YDLSLVWWSTMFFRLCSLGC | -0.601 ± 0.41
21 | WLYCVVTS | 1.63 ± 0.42
22 | SESMFLVKDSLTWTDVFLIG | -1.07 ± 1.1
23 | FMYHSYSGRPNNHAIGKHFR | -0.405 ± 0.49
24 | GCVTSGMLMTLIIH | -0.218 ± 0.48
25 | DGSSDRQGVKFFVDTSFLSR | -0.593 ± 0.48

Row | Substance | amyloid nucleation score
26 | IFWYRCNINSGCEQVVYWGN | 5.311 ± 0.033
27 | LVSFGVYMLSSVRKECHSLN | 0.536 ± 0.49
28 | ILWDRISFNMLRLTRCRFFF | -0.632 ± 1.1
29 | KKNSAVHVYF | -1.01 ± 1.1
30 | NERYP | -0.865 ± 0.33
31 | REAAVHRLIAWIGFRCRCQV | -0.317 ± 1.1
32 | LTYLFVQSSVAWLSLMIH | 0.253 ± 0.6
33 | IYRWPFVHPYMPLTRVAPDS | inactive
34 | LQCEIKPMGDTIMW | 1.47 ± 0.54
35 | MFSIYSGYIVKQC | 0.336 ± 0.74
36 | VSFRYCLYYYTENVVHMIVK | -1.85 ± 0.54
37 | TTVSWENGSRVINIVFILMF | 5.045 ± 0.04
38 | PRSVVPYR | 0.5 ± 0.31
39 | PGDGTFLMFLACGCFRPFCG | -0.181 ± 0.49
40 | SVPRYRSLMKRCH | 0.189 ± 0.32
41 | WGITGLVCV | -0.674 ± 0.76
42 | LFAYNDAFSEYFTITYVYQ | -1.14 ± 1.1
43 | FVQAVDVVWFGILLKVLFRS | inactive
44 | TFMWVDSMP | -0.525 ± 0.48
45 | NTQVTQVILYLRPWV | 9.151 ± 0.038
46 | KCSTVYASGFWLPWTVVPGR | 0.418 ± 0.26
47 | VMGDWAFSGFSNSNFS | -0.931 ± 0.44
48 | FPRDILVS | -0.13 ± 0.76
49 | EIHCPMITMISVGRDSMKFN | 0.996 ± 0.41
50 | YTFGTNWVCW | 3.6 ± 0.062

Row | Substance | amyloid nucleation score
51 | PVPNYCSEII | -1.1 ± 1
52 | TTTWGENLFASNYLLSKTAG | -0.088 ± 1.1
53 | SNSKVSVLIFFSAHKGECAA | inactive
54 | WGNNSYSPFASKYAVSQDMD | -0.902 ± 0.62
55 | GRYILFFSRSEFDFKIVQSV | 2.23 ± 0.21
56 | VCGFRAIVVVDPYWQPGKMA | 2.42 ± 0.13
57 | SMMKLDEYI | -1.17 ± 0.78
58 | CMQVYTVEYTGFCCATRARK | 5.09 ± 0.066
59 | LDDPGLK | 0.76 ± 0.14
60 | WSCQESIVRSRDDYSRFRCG | 3.42 ± 0.13
61 | CHHTAYPMANFWQWLKGAMS | 0.069 ± 0.35
62 | RRDNPWLSHVIW | 1.06 ± 0.33
63 | TGYVTRIVAAFCSQKIFVWV | -0.547 ± 0.49
64 | IYYACL | 6.401 ± 0.054
65 | YSIKQAY | inactive
66 | CLLVEHNMLWWWSCCIGCWK | 0.635 ± 0.37
67 | VFNFVSFRFDDTVD | 6.987 ± 0.04
68 | LHGVVGLFKY | -1.55 ± 0.41
69 | SMSYTS | 0.617 ± 0.14
70 | ALERWS | 0.024 ± 0.74
71 | FHLMFCGSL | -0.818 ± 0.49
72 | LFCSYPNTASRKLAIGIVAS | 0.438 ± 0.55
73 | GQLSFCGVVYDISRQEPTIF | inactive
74 | EVRRCGEEFGNGARMRWMGV | 0.923 ± 0.28
75 | VYGFP | 7.112 ± 0.048

Row | Substance | amyloid nucleation score
76 | VIHAFIMYSFGTKDV | 0.885 ± 0.32
77 | CMFLFYVKYLNVHSGGLIML | inactive
78 | CKHDCETWWCSY | 3.48 ± 0.058
79 | LHVHLGSEGPLHNKIVDAAK | -0.168 ± 0.42
80 | GRGADKLTIG | 0.288 ± 0.36
81 | IAVRDALVSVQLLPPENVGV | 1.13 ± 0.15
82 | GLCMYGVTAKRMLVVWRERG | 8.804 ± 0.046
83 | KDGSPYKYLA | -0.554 ± 0.63
84 | GHFRFEHCVSVSLSSIFSNE | 1.55 ± 0.11
85 | SSGLH | 0.527 ± 0.8
86 | NMCWFKPG | -0.329 ± 0.17
87 | SVGRHS | -0.841 ± 0.62
88 | YWACDTFSILVLGNTVDSLD | inactive
89 | EMDNGDSGTVW | -0.186 ± 0.76
90 | DLYSHSFNLHGYSMRVCYNE | 0.147 ± 0.65
91 | CCLTPYAIICLLARLNHTKV | -0.273 ± 0.61
92 | WFSLFLPPVSSKRQPADEMA | -0.317 ± 1.1
93 | RLTVTGVALVFKGFAAEYGL | 5.81 ± 0.066
94 | LTVLFLYLSLRCHSYNPAHA | -0.841 ± 1.1
95 | VSLGDYASAGFLMWIRLHVW | -0.03 ± 0.56
96 | FYTYDLSFMSNYSVLRVLCS | -1.48 ± 0.62
97 | IDKSG | 2.44 ± 0.14
98 | HIGCYAPASISPLLNGEH | 0.458 ± 0.8
99 | SPACLNS | 4.58 ± 0.053
100 | NTYVRSRHMAMSYCRMQMCL | 0.141 ± 0.27

Row | Substance | amyloid nucleation score
101 | ITLASDFACLFGVIDYSWIV | 0.143 ± 0.49
102 | AKVNCISIITEDILILSEMV | inactive
103 | VGGQNGCCWVVLNTSVPNSS | 6.645 ± 0.052
104 | SFIWSLMSLIEFPVLYKSVV | 0.067 ± 0.32
105 | FMEYCSVLLFCLVMARLSGS | -0.012 ± 1.1
106 | SLDNWFTDSRAGVGLVFS | -0.277 ± 1
107 | YCHPFVRHRLKLCTDACY | -0.174 ± 0.31
108 | LYGNYDTSYTLIQVISLRNG | 6.202 ± 0.04
109 | APSVLGAYQIHRGRVHVLSA | 0.494 ± 0.29
110 | FYYCRALWVYLVTCWHCLSY | -0.864 ± 1.1
111 | LMWENFSRRLLYWLLCGS | inactive
112 | DSRCDRAPDCGMNHCIYILC | 6.76 ± 0.082
113 | GMYYPREIEFLAFWSTTRGR | -0.956 ± 1
114 | LRLFCDMYTISSNAVDFVKF | inactive
115 | VYVIFPPLSTSLPVSMSYNL | -0.548 ± 1.1
116 | VNFGI | -0.948 ± 0.64
117 | IFVLVS | 0.131 ± 0.38
118 | SVANERR | 5.7 ± 0.065
119 | SWELFSGAWTLGNRYPFRHK | -0.079 ± 0.55
120 | FFFRSHKTIILVAKG | -0.104 ± 0.2
121 | VTRHLVVLNKYKWLGRLSTI | -1.04 ± 0.76
122 | CVVECIRSNHPSNFMMRNLG | inactive
123 | NSPPVLLHMWRFRRRDTRRY | -0.551 ± 0.61
124 | FYKLNGKNWSRVKVPHSWLF | inactive
125 | ISQAWVS | -0.329 ± 0.25

Row | Substance | amyloid nucleation score
126 | WVCSFHYAEYSLRVIAARFP | 0.081 ± 0.8
127 | GGYIQRNNDNRFAEQV | inactive
128 | RKGSNDYPFWPAVVWHPLPA | 0.753 ± 0.4
129 | CYYFLFNS | 2.31 ± 0.062
130 | TPTGSVLAYRVTISTKVVSL | 1.09 ± 0.38
131 | NCTHPFDMTPNFFWSYGIVG | -0.656 ± 1.1
132 | SGIRDTLVSWGPRGMG | -0.309 ± 0.45
133 | NNVFELCERSKLPIKKFHDV | -0.615 ± 1
134 | YEVTRRVSWAFDRMYCRVNR | 0.101 ± 0.55
135 | QVCRDDYEVDFLGCGCPRGH | -0.588 ± 0.44
136 | HVKRD | 3.23 ± 0.16
137 | CNGFVWLFSVGYFNNRFMWF | inactive
138 | HNNFIFYFLLNLMICVHYGQ | 6.066 ± 0.036
139 | VVQGVIFNGDMLNRGSLGKI | -0.129 ± 0.79
140 | FTCNACGYERSSVAYRNNPL | -0.22 ± 1.1
141 | SMNVDTPCSGRWV | -0.249 ± 1.1
142 | NGSRI | 0.018 ± 0.31
143 | YARGNFKSLCCPMV | -0.927 ± 0.78
144 | PAFMSV | -1.05 ± 0.36
145 | RRKVCYTSQVRRLVNQRNVS | -1.11 ± 0.34
146 | LNNYRDGLSY | 4.1 ± 0.064
147 | CFVIGLSMNLGHAGHKVWMT | 4.75 ± 0.086
148 | TEIHNT | inactive
149 | CNCVARYGEVKEGIHVAFDY | -0.529 ± 0.76
150 | TVSNR | -1.27 ± 0.37

Row | Substance | amyloid nucleation score
151 | SSYVVNSERVSDVARHSTLQ | 1.91 ± 0.21
152 | NNNCGRLGVYI | -0.962 ± 1
153 | RIFRYNDTVLCVLLGTNVGD | -0.418 ± 1.1
154 | RSFGLSDPIKTTGKTSV | inactive
155 | QRGRGERMFITQCLVDRMCF | -0.117 ± 0.31
156 | WHLCFISHTLRGMRTLWSIR | -0.829 ± 1.1
157 | FGFWDLMSCTSRMGTIIRLY | inactive
158 | LFVASVSLTAHNRGGDTWRR | 5.8 ± 0.084
159 | CRHYRRYLLNLQVGWMR | 0.978 ± 0.27
160 | EFLLNMAYSSGGSWTEVFRV | -0.005 ± 0.63
161 | RARFHFVKTCSTQRSMPHMG | 3.21 ± 0.073
162 | RLRKFESLLICDRISIIVRY | 0.621 ± 0.56
163 | TYIPGLVRTSLCGVA | -0.245 ± 0.35
164 | VLSYSVFTLRLATKIVP | -0.337 ± 1.1
165 | NRYTNGPNF | -0.106 ± 0.29
166 | WDSIVDVSSKIAFFRMNDSS | -1.41 ± 0.62
167 | MLKWWLFTRSSSPGRHCRLD | -0.471 ± 0.54
168 | IRCRVRK | 0.484 ± 0.4
169 | REWWYKKALPQCENTIGVGQ | 0.721 ± 0.47
170 | CEEAVSIGLKGYEHVEKSAP | -0.313 ± 0.76
171 | KVQNWMLNTHGFYSLRGFDQ | -0.857 ± 0.41
172 | YFCRMMCLNRWIGRLLFRCN | 0.775 ± 0.62
